Legend:
Reg3β = test: Mouse PD: plasma Reg3β after single administration (ELISA); type: in vivo; design: Reg3βCmax: unit not given here; conditions: for Reg3βCmax: mouse plasma, wt IL-22 i.p.
Experimental: The ELISA method was used to determine the baseline levels and post-dose changes of the biomarker Reg3β in plasma samples before and after administration of different test candidates.
For the preferable test candidates, one mouse per dose group was subcutaneously injected at 0.5, 1, or 3 mg/kg. The control molecules were IL-22-Fc, administered subcutaneously at 0.3 and 1 mg/kg, and wt IL-22, administered intraperitoneally at the corresponding doses.
Approximately 40 µL of orbital blood was collected with anticoagulation on the day before dosing and at 4, 24, 48, 96, 144, 192, 264, 336, and 408 hours after dosing, followed by plasma separation. ELISA plates were coated overnight at 4°C with 1 µg/mL anti-Reg3β (Sino Biological, 51153-R065) dissolved in PBS. Mouse Reg3β (Sino Biological, 51153-M08H) was serially diluted to generate a positive control standard curve. Plasma samples were appropriately diluted to fall within the linear range of the standard curve. After blocking, samples were added and incubated for 2 hours. Incubation was then performed with the secondary antibody sheep anti-mouse Reg3β (R&D Systems, AF5110-SP) and HRP-conjugated antibody (HRP-Rabbit anti-sheep IgG H&L, Abcam, Ab97130). After final washing, tetramethylbenzidine peroxidase substrate (TMB, Surmodics, TMBS-1000-01) was added for color development for 10 minutes. The reaction was terminated with 2 M sulfuric acid, and absorbance was read at 450 nm with 630 nm as reference using a microplate reader. The original concentrations of Reg3β in each sample were calculated. Concentration versus time curves were plotted (Figure 9).

[1] = Mouse PK, plasma concentration by ELISA; type: in vivo; conditions: single s.c. 1 mg/kg, male Balb/C mice
Experimental: Male Balb/C mice (n = 4 per group) were administered a single subcutaneous injection at a dose of 1 mg/kg. Blood samples were collected before dosing and at 4 (no samples were collected at this time point for 60k-PEG-IL22-D109C and 60k-PEG-IL22-P120C), 8, 24, […], 48, 72, 96, and 120 hours after dosing. Anticoagulated blood was used to prepare plasma.
The concentrations of each test candidate in plasma were quantified by ELISA. Anti-IL22 Antibody (Sino Biological, 13059-MM24), diluted in PBS to 2 µg/mL, was used for coating. Standard curves of each test candidate and plasma samples were diluted to fall within the linear range of detection. Recombinant Anti-IL22 Antibody (Sino Biological, 13059-R034-H) was used for detection. The original concentration of each test candidate in the samples was calculated using a four-parameter fit of the standard curve for each test candidate. Pharmacokinetic parameters of each test candidate in mouse plasma were analyzed (Figure 12). Table 13. Dosing information for the mouse PK study

STAT3 = STAT3 phosphorylation in HaCaT cells by FACS (tissue activation preference); type: cell-based, Human; conditions: STAT3 activation in HT29 vs HaCaT cells
Experimental: Human immortalized keratinocyte HaCaT cells were recovered and cultured in MEM/EBSS medium (Cytiva, SH30024.01) supplemented with 15% FBS and 1% P/S (Cytiva, SV30010). When cell confluence reached 70%-80%, cells were digested with 0.25% Trypsin-EDTA (Gibco, 25200-056), terminated with complete medium, and resuspended to […]. After mixed thoroughly, a total of 120 µL per well cells was seeded into a 96-well plate (Corning, 3599) at a density of 1.5 × 10^5 cells per well and incubated overnight at 37°C with 5% CO2.
wt IL-22 was prepared at an initial working concentration of 1000 nM, and the remaining samples were prepared at 10000 nM as the starting concentration. […] After staining at room temperature in the dark for 1 hour, cells were washed twice with 1× PBS and analyzed by flow cytometry to determine the mean fluorescence intensity (MFI).
Tissue activation preference of different test candidates was evaluated by comparing their ability to activate STAT3 in intestinal-derived HT29 cells and skin-derived HaCaT cells. […] The activity of PEGylated IL-22 mutants in activating STAT3 phosphorylation in HaCaT cells at different concentrations as determined by FACS is shown in Figure 8. […] Tissue preference of PEG-IL22 mutants for STAT3 phosphorylation in human intestinal and human skin cell lines determined by FACS

SAA = test: Mouse PD preference study: plasma SAA; type: in vivo, mice; conditions: at equivalent or superior Reg3β Cmax: 60K-PEG-IL22-D109C 0.1 mg/kg vs 60K-PEG-IL22-P120C 0.3 mg/kg vs IL-22-Fc 1 mg/kg, s.c.
Experimental: Based on the in vitro preference results and preliminary PD screening results, the molecules 60k-PEG-IL22-D109C and 60k-PEG-IL22-P120C were selected. PD testing was performed in three mice per dose group at different dose levels according to the method described in Example 14, including the pharmacodynamic-related molecule Reg3β and the inflammation-related molecule SAA. The control was IL-22-Fc. Blood samples were collected before dosing and at 4, 24, 48, 72, 96, 144, 192, 264, and 336 hours after dosing. Plasma was separated using anticoagulated blood samples. For the control molecules wt IL-22 and hB3-his, samples were collected only up to 96 hours.
The detection method for SAA was as follows: a kit containing detecting antibody pairs and positive controls (Abcam, Ab216059) was used to detect SAA concentrations in appropriately diluted plasma samples. The assay was performed according to the manufacturer's instructions. Sa-HRP (Pierce 21126) was used for conjugation. After washing, tetramethylbenzidine peroxidase substrate (TMB, Surmodics, TMBS-1000-01) was added for color development for 10 minutes. The reaction was terminated with 2 M sulfuric acid, and the plate was read at 450 nm with 630 nm as the reference using a microplate reader. SAA was measured before dosing and at 24, 48, 72, 96, and 144 hours after dosing. The original SAA concentration in each sample was calculated. […]

B1: 60K-PEG-IL22-D109C: IL-22 cysteine mutant, conjugation site 76, PEG-maleimide 60kD (conjugate)
chain: APISSHCRLDKSNFQQPYITNRTFMLAKEASLADNNTDVRLIGEKLFHGVSMSERCYLMKQVLNFTLEEVLFPQSCRFQPYMQEVVPFLARLSNRLSTCHIEGDDLHIQRNVQKLKDTVKKLGESGEIKAIGELDLLFMSLRNACI
In the case of B1, the “Normalized Cmax ratio of Reg3β (relative to IL-22-Fc)” value (Reg3β; 0.5mg/kg single dose vs IL-22-Fc 0.3 mg/kg) is reported as 329%, the Reg3βCmax (Reg3β; 0.5mg/kg single dose, test candidates s.c., one mouse per dose group) is reported as 52.0 and the “Normalized Cmax ratio of Reg3β (relative to IL-22-Fc)” value (Reg3β; 1mg/kg single dose) is reported as 251%. The Reg3βCmax (Reg3β; 1mg/kg single dose, s.c.) was 82.9, the Reg3βCmax (Reg3β; 3mg/kg single dose, s.c.) was 73.4 and the “peak concentrations of Reg3β stimulation compared with IL-22-Fc” value (Reg3β; similar (0.5 mg/kg vs. 0.3 mg/kg) or identical (1 mg/kg) doses) was “higher peak concentrations”. The “AUClast” value [1] was 301.5835 µg·h/mL, the “Cmax” value [1] was 5460.625 ng/mL and the “MRT” value [1] was 41.39 h. The “T1/2” value [1] was 21.6 h, the “tissue preference compared with IL-22-Fc” value (STAT3) was “superior tissue preference” and the “SAA Cmax compared with IL-22-Fc” value (SAA) was “significantly lower”.

From patent publication EP4786489A1, “IL-22 MUTANT, PREPARATION METHOD THEREFOR, AND USE THEREOF” (Nanjing Novoacine Biotechnology Co., Ltd., priority 2023, dated 2025)
